These are literature values, as cited in paper PMC9785887.

The Kd is the equilibrium constant for the complex coming apart. For orientation: Ki means the equilibrium dissociation constant of an inhibitor or competing ligand from its target.

Data set [1] has as its target Neuropilin-1 (Homo sapiens) (UniProt O14786).
Data set [2] has as its target Integrin αvβ6 (Homo sapiens) (UniProt P06756).
Sequence of UniProt P06756 (P06756 31-992, chain 1 of 2): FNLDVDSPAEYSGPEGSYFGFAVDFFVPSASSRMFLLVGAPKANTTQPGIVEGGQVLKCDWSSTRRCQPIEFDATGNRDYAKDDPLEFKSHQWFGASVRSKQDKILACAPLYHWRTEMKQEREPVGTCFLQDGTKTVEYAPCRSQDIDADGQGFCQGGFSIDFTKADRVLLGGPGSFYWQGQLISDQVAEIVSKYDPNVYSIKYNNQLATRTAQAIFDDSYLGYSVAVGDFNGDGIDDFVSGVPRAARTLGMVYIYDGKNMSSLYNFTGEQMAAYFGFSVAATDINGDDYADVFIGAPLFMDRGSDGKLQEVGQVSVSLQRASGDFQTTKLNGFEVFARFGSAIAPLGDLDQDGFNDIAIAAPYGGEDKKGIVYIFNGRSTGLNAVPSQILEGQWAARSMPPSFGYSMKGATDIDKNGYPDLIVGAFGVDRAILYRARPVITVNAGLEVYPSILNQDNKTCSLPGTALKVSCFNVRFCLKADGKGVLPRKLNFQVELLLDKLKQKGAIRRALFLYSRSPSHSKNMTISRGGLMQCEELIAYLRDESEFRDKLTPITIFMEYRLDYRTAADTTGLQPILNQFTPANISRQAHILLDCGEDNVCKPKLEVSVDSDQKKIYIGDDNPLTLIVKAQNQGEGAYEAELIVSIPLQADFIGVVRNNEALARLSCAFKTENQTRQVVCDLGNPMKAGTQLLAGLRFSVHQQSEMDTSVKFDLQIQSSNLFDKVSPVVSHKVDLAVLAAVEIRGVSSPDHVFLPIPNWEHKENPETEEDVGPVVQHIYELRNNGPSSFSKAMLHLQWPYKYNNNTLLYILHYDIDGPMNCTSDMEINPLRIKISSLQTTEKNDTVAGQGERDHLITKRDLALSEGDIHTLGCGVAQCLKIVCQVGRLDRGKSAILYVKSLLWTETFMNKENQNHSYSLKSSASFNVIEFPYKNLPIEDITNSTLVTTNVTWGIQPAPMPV
Sequence of UniProt P06756 (P18564 22-709, chain 2 of 2, further chain): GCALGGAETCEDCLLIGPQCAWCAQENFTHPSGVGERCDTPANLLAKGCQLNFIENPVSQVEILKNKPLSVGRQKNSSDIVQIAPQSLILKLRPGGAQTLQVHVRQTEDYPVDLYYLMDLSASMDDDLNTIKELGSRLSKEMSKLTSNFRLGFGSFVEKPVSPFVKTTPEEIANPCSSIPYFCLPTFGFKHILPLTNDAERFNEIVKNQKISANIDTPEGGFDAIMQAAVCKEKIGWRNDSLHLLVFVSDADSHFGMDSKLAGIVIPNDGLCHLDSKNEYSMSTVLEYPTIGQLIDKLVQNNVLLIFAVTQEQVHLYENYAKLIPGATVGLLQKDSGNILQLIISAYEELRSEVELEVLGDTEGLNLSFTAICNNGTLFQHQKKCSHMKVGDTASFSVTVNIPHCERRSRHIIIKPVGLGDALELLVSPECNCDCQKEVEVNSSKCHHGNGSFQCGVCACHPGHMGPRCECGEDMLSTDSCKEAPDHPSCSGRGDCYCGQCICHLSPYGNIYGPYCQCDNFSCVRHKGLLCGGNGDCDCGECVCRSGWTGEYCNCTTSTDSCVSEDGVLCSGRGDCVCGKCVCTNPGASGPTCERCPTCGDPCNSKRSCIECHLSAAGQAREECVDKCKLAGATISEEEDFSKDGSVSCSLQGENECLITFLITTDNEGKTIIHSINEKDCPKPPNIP

Sequence of Chromogranin A peptide CgA39-63 (P10645 57-81): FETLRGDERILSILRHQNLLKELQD
Sequence of UniProt O14786 (O14786 22-856): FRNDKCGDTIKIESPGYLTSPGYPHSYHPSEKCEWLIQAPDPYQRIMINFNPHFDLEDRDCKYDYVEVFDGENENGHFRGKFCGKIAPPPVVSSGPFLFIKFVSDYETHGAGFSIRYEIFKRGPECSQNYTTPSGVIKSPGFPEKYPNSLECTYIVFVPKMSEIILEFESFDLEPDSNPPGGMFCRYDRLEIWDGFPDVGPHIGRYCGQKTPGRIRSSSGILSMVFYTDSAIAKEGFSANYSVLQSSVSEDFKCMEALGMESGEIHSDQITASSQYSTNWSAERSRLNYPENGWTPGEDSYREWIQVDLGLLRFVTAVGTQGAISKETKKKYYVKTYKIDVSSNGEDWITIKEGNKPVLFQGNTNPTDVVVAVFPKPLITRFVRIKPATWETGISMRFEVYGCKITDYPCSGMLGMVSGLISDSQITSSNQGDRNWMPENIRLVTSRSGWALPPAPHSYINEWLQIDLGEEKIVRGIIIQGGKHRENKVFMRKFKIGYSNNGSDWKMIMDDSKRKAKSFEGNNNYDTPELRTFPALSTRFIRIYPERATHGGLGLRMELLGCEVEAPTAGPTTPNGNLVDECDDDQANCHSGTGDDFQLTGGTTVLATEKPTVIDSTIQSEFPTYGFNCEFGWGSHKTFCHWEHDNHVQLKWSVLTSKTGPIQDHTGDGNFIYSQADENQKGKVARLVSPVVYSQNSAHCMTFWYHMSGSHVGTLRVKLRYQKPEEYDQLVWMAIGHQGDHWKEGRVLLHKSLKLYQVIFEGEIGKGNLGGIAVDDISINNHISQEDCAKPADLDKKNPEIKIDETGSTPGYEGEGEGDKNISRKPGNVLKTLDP

As for “Chromogranin A 1-373 1-373 (from UniProt P10645)”, in data set [1], the Kd was 3.49 nM.
Chromogranin A peptide CgA39-63: the Ki in data set [2] was 15.5 nM.
